These results are taken from PMC9477280 (PLoS Pathogens, 2022).

Assay [1] deals with T1, MC1061 expressing EHEC intimin (Escherichia coli O157:H7 EDL933 (EHEC), UniProt P43261).
T1 construct: also called E. coli 1061/pInt (EHEC); EHEC intimin expressed on the surface of strain MC1061
Nature of the assay: ELISA; dilution ELISA with intimin displayed on the surface of E. coli MC1061 as antigen; soluble thioredoxin/VHH/E-tag; EC50 estimates (apparent affinity). To be noted: one partner purified.

The next assay deals with T2, MC1061 /EPEC intimin (Escherichia coli O127:H6, JPN15 …, UniProt P19809).
T2 construct: also called E. coli 1061/pInt (EPEC); EPEC intimin expressed on the surface of strain MC1061
The assay is described as above. Conditions: one partner purified.

For the next assay, the target named is T3, EHEC intimin (Escherichia coli O157:H7 EDL933 (EHEC), UniProt P43261).
T3 construct: also called recombinant intimin (EHEC)
Kind of assay: ELISA; dilution ELISA; purified antigen coated directly on Nunc Maxisorp wells, typically 1 μg/mL in PBS overnight at 4°C, blocked with 4% milk in PBS 0.1% Tween; thioredoxin/VHH/E-tag from 125 nM in 1:5 serial dilutions, 1 h 37°C; detected with HRP anti-E-tag; EC50 estimates (apparent affinity); Trace = EC50 >125 nM, poor but detectable. Conditions: both partners purified.

A further assay has as its target C. rodentium intimin (Citrobacter rodentium DBS100, UniProt Q07591). Kind of assay: ELISA; EC50 told in footnote g of Table 1; form of the C. rodentium intimin antigen not stated.
In a further assay the target is T4, EPEC intimin (Escherichia coli O127:H6 E2348/69 (EPEC), UniProt P19809).
T4 construct: also called recombinant intimin (EPEC)
Kind of assay: ELISA; dilution ELISA; purified antigen coated directly on Nunc Maxisorp wells, typically 1 μg/mL in PBS overnight at 4°C, blocked with 4% milk in PBS 0.1% Tween; thioredoxin/VHH/E-tag from 125 nM in 1:5 serial dilutions, 1 h 37°C; detected with HRP anti-E-tag; EC50 estimates (apparent affinity); Trace = EC50 >125 nM, poor but detectable. To be noted: both partners purified.

In the next assay the target is EPEC flagella (Escherichia coli O127:H6 E2348/69 (EPEC), UniProt B7USU2). The description is as above. Conditions: both partners purified.
In the next assay the target is T5, EPEC FliC (Escherichia coli EPEC, likely O127:H6 …, UniProt B7USU2).
T5 construct: also called EPEC rFliC; recombinant FliC
Described as above. Conditions: both partners purified.

T1 sequence (P43261 40-934): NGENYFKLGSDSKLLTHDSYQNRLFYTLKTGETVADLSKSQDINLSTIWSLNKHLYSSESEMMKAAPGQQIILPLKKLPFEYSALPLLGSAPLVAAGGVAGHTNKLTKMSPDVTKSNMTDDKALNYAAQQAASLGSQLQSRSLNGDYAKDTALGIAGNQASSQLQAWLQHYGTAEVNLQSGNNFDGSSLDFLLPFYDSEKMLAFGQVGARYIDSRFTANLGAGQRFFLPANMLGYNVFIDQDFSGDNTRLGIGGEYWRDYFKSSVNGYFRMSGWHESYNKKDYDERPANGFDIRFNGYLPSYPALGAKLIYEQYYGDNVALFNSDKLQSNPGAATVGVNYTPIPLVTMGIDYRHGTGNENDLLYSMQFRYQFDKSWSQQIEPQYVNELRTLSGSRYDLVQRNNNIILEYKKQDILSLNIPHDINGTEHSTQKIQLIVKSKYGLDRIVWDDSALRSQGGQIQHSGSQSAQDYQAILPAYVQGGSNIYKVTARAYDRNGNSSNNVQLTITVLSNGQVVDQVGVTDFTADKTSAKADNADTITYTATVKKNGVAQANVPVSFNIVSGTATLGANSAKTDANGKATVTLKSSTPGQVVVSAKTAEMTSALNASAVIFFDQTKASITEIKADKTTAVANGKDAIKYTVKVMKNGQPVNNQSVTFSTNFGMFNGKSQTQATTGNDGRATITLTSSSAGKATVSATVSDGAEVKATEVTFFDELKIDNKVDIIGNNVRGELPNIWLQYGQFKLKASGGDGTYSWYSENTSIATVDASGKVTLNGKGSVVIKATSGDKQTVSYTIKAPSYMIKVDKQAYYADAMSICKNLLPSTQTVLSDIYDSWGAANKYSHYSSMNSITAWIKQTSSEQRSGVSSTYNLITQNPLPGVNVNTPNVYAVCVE
T2 sequence (P19809 42-939): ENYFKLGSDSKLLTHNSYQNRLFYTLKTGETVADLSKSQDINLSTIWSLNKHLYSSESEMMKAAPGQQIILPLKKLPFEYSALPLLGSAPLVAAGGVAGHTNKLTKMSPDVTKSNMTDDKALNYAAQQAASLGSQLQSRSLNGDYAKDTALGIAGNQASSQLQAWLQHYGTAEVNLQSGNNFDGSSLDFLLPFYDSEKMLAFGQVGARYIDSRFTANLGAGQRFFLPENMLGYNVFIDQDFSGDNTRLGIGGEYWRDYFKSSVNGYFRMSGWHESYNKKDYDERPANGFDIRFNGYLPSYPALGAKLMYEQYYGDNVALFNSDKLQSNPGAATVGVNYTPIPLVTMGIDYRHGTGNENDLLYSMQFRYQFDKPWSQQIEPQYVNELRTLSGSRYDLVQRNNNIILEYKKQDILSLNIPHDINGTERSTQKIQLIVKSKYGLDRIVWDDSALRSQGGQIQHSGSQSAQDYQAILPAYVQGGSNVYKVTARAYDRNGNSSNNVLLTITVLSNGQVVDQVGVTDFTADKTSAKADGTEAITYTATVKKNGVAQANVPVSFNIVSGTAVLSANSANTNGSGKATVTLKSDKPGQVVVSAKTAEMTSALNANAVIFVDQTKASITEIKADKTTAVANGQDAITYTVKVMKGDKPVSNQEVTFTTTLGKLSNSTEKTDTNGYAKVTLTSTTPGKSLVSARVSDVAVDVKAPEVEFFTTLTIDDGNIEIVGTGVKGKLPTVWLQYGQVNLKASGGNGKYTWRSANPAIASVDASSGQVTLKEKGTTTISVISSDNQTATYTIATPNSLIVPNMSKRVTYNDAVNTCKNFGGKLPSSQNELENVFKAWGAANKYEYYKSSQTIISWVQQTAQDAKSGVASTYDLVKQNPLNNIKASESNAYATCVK
T3 sequence (P43261 40-934): as the sequence (P43261 40-934) above
Chain of EPEC flagella (B7USU2 2-548): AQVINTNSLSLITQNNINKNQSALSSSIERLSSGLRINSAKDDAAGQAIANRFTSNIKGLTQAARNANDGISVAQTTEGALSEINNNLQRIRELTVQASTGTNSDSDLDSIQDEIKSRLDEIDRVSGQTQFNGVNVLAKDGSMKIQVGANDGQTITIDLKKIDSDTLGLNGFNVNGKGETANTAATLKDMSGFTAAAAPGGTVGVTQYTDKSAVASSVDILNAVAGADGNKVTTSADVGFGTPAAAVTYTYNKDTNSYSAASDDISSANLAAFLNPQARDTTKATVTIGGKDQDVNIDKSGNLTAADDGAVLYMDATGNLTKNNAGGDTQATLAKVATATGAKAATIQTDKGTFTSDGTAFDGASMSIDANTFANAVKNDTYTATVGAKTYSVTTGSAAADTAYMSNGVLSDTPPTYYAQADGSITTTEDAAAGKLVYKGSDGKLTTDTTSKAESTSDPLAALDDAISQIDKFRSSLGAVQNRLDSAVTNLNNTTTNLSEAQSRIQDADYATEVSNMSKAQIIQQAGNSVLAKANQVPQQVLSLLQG
T5 sequence (B7USU2 2-548): as above
T4 sequence (P19809 42-939): as the sequence (P19809 42-939) above

B1: JWS-H4 (VHH)
VHH: SGGGLVQAGGSLRLSCTTSASIFSGYRMGWFRQAPGKQREFVASIADGQNTPYADSVMGRFTISRDNAKNTVYLQMSNLKPEDTAIYYCKSWGYTDWGQGTQVTVSS
notes: also called αInt-12; JWZ-5 (vector name)
In the case of B1, the binding result in assay [1] is given as “binds”. Also, in the assay with MC1061 /EPEC intimin, the EC50 was 10 nM.

B2: JWU-D8 (VHH)
VHH: TGGGLVQPGGSLRLSCAASGFYFSGYWMHWVRQVQGQGLKWVSGINIDDTKSSYTDSVKGRFTISRDNTKNTLYLQMDSLQPEDTGVYYCARDRRAGQISGGYDPDYRGQGTQVTVSS
notes: also called αInt-14; JWZ-9 (vector name)
Turning to B2, the binding result in assay [1] is on record as “binds”. Further, the EC50 with MC1061 /EPEC intimin is 0.5 nM.

B3: JWU-G8 (VHH)
VHH: SGGGLVQPGGSLRLSCATSGFYFAGYWMHWVRQVPGQGLEWVSGIDLGSTMLNYRDSVKGRFSISRDNAKNTVYLQMHSLKPEDTALYFCARDRRAGATSGGYDPDVRGQGTQVTVSS
notes: also called αInt-17; JWZ-15 (vector name)
Take B3: the binding result in assay [1] is recorded as “binds”; in the assay with EHEC intimin, “no binding (tested: 125 nM (highest VHH concentration))”. Also, the EC50 in the assay with MC1061 /EPEC intimin is 0.5 nM.

B4: JXN-E2 (VHH)
VHH: TGGLVPPGGSLQLSCTSSGFFLDYLGVAWFRQAPGNEREGVSCIDYTGDNIAYASSMKGRATISRDKDANTVTLEMNGLKPEDTAVYYCAAHRSATTYADGKYRCPLENEYDYWGQGIQVTVSS
notes: also called JXS-2 (vector name); not shown: thioredoxin, N-terminal, kept; E-tag, C-terminal, kept
The molecule B4 returned an EC50 with C. rodentium intimin of roughly 0.5 nM. Also, the binding result with MC1061 /EPEC intimin, with EHEC intimin and in the assay with EPEC intimin was “no binding (tested: 125 nM (highest VHH concentration))” in each case.

B5: JUV-C4 (VHH)
VHH: TGGGLVQAGGSLTLSCVASGRAVSSFAMGWFRQIPGREQRDFVAFIGDYGLTTYYANSVKGRFTISRSNAENTLYLQMNSLEFEDAAVYFCAARDAYRSGTTNPSAYDYWGQGTQVTVSS
notes: also called αFla-2; JVE-4 (vector name); not shown: thioredoxin, N-terminal, kept; E-tag, C-terminal, kept
For B5, the EC50 is 1 nM in the assay with EPEC flagella and 0.3 nM with EPEC FliC.
